The target in assay [1] is T1, human PD-L1 (membrane-bound type), expressed on MC38 / CHO-K1 cells (human, UniProt Q9NZQ7 19-290).
T1 construct: Full-length gene transfected into MC38 and CHO-K1 cells; also called hPD-L1
Kind of assay: flow cytometry on MC38 cells expressing hPD-L1. The method, then:
(§1) MC38/CHO-K1 cells expressing either PD-L1 or pan IgC were used as positive detection cells. MC38/CHO-K1 wild type cells and PD-L2-expressed MC38/CHO-K1 cells were used as negative control. About 1×10⁵ negative and positive cells were stained with either sera from immunized mice (1:100, 1:1000, 1:10000 dilutions) or culture supernatant (50 μl) from hybridoma, or mouse monoclonal antibody (concentrations as indicated in the figures), or other humanized antibodies (concentrations as indicated in the figures), and incubated at 4° C. for 15 min. After washed with PBS, the cells were stained with a PE conjugated goat anti mouse IgG (BD biosciences) and incubated in dark place at 4° C. for 15 min. After washed with PBS, the stained cells were analyzed by a flow cytometry (NovoCyte, Acebio, Hangzhou).
(§2) MC38 cells expressing either hPD-L1 or pan-IgC were used as positive detection cells, whereas, both hPD-L2 expressed and parental MC38 cells were used as negative detection cells.
(§3) 50 μl/well of hybridoma culture supernatant or 100 ng/well mouse monoclonal antibody were mixed with 1×10 5 of either positive or negative detection cells at 4° C. for 15 min. After washed with PBS, the cells were stained with a PE conjugated goat anti mouse antibody (BD biosciences) at 4° C. for 15 min in dark place.
A general note: Flow cytometry measures light scatter and fluorescence of single cells or particles in a stream.

Assay [2] deals with T2, native form of secretory sPD-L1-3, in culture supernatant of transfected MC38 cells (human, UniProt Q9NZQ7 19-178).
T2 construct: Untagged, secreted by MC38 cells; also called sPD-L1-3/12
Nature of the assay: indirect (sandwich) ELISA: antibody coated, MC38 culture supernatant with sPD-L1-3. (An ELISA detects its analyte on a solid surface through an enzyme-linked reagent.)

Assay [3] addresses T3, pan IgC segment of human PD-L1, expressed on MC38 / CHO-K1 cells (human, UniProt Q9NZQ7 132-238).
T3 construct: also called PD-L1-pan-IgC; hPD-L1 pan-IgC segment
Kind of assay: flow cytometry on cells expressing pan IgC. On the procedure:
as §1, §2, §3

Assay [4] concerns the target T4, recombinant PD-L1-3-HIS (secretory splice variant PD-L1-3 with HIS tag, from HEK293 cells) (human, UniProt Q9NZQ7 19-178).
T4 construct: The range 19-178 comes from the background paragraph; also called rPD-L1-3-HIS; sPD-L1-3-HIS; not shown: HIS tag
Nature of the assay: direct ELISA, 50 ng/well rPD-L1-3-HIS coated.

For assay [5], the target named is T5, human CD80 (membrane-bound type), on cells (human, UniProt P33681 35-288).
T5 construct: whole, on cells
T5 sequence (looked up): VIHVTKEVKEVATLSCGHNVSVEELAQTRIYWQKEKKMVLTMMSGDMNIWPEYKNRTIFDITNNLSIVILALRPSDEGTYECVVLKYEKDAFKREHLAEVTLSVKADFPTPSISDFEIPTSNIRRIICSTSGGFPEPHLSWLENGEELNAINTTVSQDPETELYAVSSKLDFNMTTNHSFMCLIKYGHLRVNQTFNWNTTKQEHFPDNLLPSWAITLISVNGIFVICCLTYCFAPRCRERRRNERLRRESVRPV
Nature of the assay: flow cytometry on cells with membrane-bound human CD80.
Source text: FIG. 10. […] C. CHO-K1 parental cells were used as a negative control. Clone #2D10: human CD80 mouse monoclonal antibody (Elabscience, Wuhan). 2nd antibody: PE labeled goat anti-mouse antibody (BD Biosciences)
as §1

The target of assay [6] is T6, human PD-L2 (membrane-bound type), expressed on CHO-K1 cells (human, UniProt Q9BQ51 20-273).
T6 construct: whole, on cells; also called hPD-L2
T6 sequence (looked up): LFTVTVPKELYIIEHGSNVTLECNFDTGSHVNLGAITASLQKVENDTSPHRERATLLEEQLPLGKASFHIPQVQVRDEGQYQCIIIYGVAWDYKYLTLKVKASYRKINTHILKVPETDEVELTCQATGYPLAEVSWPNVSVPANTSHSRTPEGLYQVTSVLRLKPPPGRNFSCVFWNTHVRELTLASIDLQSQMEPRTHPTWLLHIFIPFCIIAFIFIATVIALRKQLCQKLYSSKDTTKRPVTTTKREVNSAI
Nature of the assay: flow cytometry on cells with membrane-bound human PD-L2.

For assay [7], the target named is T3, pan IgC segment of human PD-L1, …. Kind of assay: flow cytometry on cells with pan-IgC.
Assay [8] addresses T2, native form of secretory sPD-L1-3, in …. Kind of assay: ELISA with MC38 culture supernatant containing native sPD-L1-3.
Assay [9] has as its target T1, human PD-L1 (membrane-bound type), …. Kind of assay: flow cytometry on cells with membrane-bound PD-L1.
The target of assay [10] is T6, human PD-L2 (membrane-bound type), …. Kind of assay: flow cytometry on cells with membrane-bound human PD-L2; the antibody also bound the CHO-K1 parental cells.

We go through 5 molecules from patent US20230406936A1 (IMMUNOURCHIN, published 2023).

T3 sequence (Q9NZQ7 132-238): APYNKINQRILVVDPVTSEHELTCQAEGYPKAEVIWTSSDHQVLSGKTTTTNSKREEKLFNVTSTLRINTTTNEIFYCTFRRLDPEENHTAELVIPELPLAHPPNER
T2 sequence (Q9NZQ7 19-178): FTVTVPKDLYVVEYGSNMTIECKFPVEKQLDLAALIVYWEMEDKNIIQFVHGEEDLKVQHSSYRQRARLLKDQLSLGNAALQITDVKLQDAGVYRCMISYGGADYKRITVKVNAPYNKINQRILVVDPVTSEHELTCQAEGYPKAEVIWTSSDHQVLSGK
T1 sequence (Q9NZQ7 19-290): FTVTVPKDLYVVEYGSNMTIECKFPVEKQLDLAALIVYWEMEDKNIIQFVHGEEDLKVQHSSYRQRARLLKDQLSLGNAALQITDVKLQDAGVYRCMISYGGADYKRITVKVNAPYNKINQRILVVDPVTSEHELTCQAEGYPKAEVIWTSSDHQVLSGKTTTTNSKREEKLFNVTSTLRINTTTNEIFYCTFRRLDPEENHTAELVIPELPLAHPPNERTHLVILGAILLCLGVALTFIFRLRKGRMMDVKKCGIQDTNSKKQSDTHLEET
T4 sequence (Q9NZQ7 19-178, change not shown): as the sequence (Q9NZQ7 19-178) above

B1: PD-L1 mouse monoclonal antibody #19 (antibody, mouse IgG2b, V domains shown)
VH: EVQLQQSGPELVKPGASVKISCKASGSAFSSSWMNWLKQRPGQGLEWIGRIYPGDGDTNYNGKFKGKATLTADKSSSTAYMQLSSLTSVDSAVYFCARRRANHYGSNWYFDVWGAGTTVTVSS
VL: NIVLTQSPASLAVSLGQRATISCRASESVDSYGKSFMHWYQQKPGQPPKLLIYLASNLESGVPARFSGSGSRTDFTLTIDPVEADDAATYYCQQNNEDPYTFGGGTKLEIK
notes: also called mAb #19; Ab #19
In the case of B1, the binding result in assay [1] is on record as “binds”; in assay [2] it was “no binding (tested: 0.2 µg/well coated antibody)”; in [3], “binds”; in assay [4] it was “no binding (tested: 100 ng/100 µl/well)”.

B2: humanized PD-L1 antibody H6L5 (VH6 + VL5) (antibody, V domains shown)
VH: EVQLQQSGAEVKKPGSSVKVSCKASGSAFSSSWMNWLKQRPGQGLEWIGRIYPGDGDTNYNGKFKGRVTLTADKSSSTAYMQLSSLRSEDTAVYFCARRRANHYGSNWYFDVWGAGTTVTVSS
VL: NIVLTQSPASLSASVGDRVTISCRASESVDSYGKSFMHWYQQKPGQPPKLLIYLASNLESGVPARFSGSGSRTDFTLTIDSLQPEDFATYYCQQNNEDPYTFGGGTKLEIK
For the molecule B2, the figures for the binding result in assay [5], in assay [6] and in [7] were “no binding”, “no binding” and “binds”, respectively.

B3: humanized PD-L1 antibody H4L4 (VH4 + VL4) (antibody, V domains shown)
VH: EVQLVQSGAEVKKPGSSVKVSCKASGSAFSSSWMNWLRQRPGQGLEWIGRIYPGDGDTNYNGKFKGRVTLTADKSSSTAYMELSSLRSVDTAVYFCARRRANHYGSNWYFDVWGAGTTVTVSS
VL: NIVLTQSPASLSASVGDRVTISCRASESVDSYGKSFMHWYQQKPGQPPKLLIYLASNLESGVPARFSGSGSRTDFTLTISSLQPEDFATYYCQQNNEDPYTFGGGTKLEIK
Regarding B3, the binding result in assay [7] is “binds”.

B4: humanized PD-L1 antibody H6L2 (humanized mouse monoclonal antibody #19, VH6 + VL2) (antibody, V domains shown)
VH: EVQLQQSGAEVKKPGSSVKVSCKASGSAFSSSWMNWLKQRPGQGLEWIGRIYPGDGDTNYNGKFKGRVTLTADKSSSTAYMQLSSLRSEDTAVYFCARRRANHYGSNWYFDVWGAGTTVTVSS
VL: NIVLTQSPSSLSASVGDRVTITCRASESVDSYGKSFMHWYQQKPGQPPKLLIYLASNLESGVPSRFSGSGSRTDFTLTISSLQPEDFATYYCQQNNEDPYTFGGGTKLEIK
notes: also called humanized antibody H6L2; humanized antibody #19
Broadly, the EC50 is the midpoint of the concentration-response curve. Read a low EC50 as greater potency. For B4, the binding result in assay [8], in assay [5] and in [6] was “no binding” throughout. This molecule registered an EC50 in assay [9] of 0.62 µg/mL.

B5: humanized PD-L1 antibody H5L4 (VH5 + VL4) (antibody, V domains shown)
VH: EVQLVQSGAEVKKPGASVKVSCKASGSAFSSSWMNWLRQRPGQGLEWIGRIYPGDGDTNYNGKFKGRVTLTADKSISTAYMELSRLRSVDTAVYFCARRRANHYGSNWYFDVWGAGTTVTVSS
VL: NIVLTQSPASLSASVGDRVTISCRASESVDSYGKSFMHWYQQKPGQPPKLLIYLASNLESGVPARFSGSGSRTDFTLTISSLQPEDFATYYCQQNNEDPYTFGGGTKLEIK
For B5, the binding result in [10] is reported as “binds”.
